Test results taken from EP3515493A1.

Target: HLA-DR, human (human)
Experiment: cell-based or functional assay

| Substance | lysis rate (LDH cytotoxicity assay, Raji target cells) |
| --- | --- |
| Lym-2 CAR | 22% |
| Lym-1 CAR | 22% |
